Here are results for 2 substances from patent US20040122077.

One data set concerns the target T1, endogenous eNOS of HUVEC (UniProt P29474).
T1 sequence: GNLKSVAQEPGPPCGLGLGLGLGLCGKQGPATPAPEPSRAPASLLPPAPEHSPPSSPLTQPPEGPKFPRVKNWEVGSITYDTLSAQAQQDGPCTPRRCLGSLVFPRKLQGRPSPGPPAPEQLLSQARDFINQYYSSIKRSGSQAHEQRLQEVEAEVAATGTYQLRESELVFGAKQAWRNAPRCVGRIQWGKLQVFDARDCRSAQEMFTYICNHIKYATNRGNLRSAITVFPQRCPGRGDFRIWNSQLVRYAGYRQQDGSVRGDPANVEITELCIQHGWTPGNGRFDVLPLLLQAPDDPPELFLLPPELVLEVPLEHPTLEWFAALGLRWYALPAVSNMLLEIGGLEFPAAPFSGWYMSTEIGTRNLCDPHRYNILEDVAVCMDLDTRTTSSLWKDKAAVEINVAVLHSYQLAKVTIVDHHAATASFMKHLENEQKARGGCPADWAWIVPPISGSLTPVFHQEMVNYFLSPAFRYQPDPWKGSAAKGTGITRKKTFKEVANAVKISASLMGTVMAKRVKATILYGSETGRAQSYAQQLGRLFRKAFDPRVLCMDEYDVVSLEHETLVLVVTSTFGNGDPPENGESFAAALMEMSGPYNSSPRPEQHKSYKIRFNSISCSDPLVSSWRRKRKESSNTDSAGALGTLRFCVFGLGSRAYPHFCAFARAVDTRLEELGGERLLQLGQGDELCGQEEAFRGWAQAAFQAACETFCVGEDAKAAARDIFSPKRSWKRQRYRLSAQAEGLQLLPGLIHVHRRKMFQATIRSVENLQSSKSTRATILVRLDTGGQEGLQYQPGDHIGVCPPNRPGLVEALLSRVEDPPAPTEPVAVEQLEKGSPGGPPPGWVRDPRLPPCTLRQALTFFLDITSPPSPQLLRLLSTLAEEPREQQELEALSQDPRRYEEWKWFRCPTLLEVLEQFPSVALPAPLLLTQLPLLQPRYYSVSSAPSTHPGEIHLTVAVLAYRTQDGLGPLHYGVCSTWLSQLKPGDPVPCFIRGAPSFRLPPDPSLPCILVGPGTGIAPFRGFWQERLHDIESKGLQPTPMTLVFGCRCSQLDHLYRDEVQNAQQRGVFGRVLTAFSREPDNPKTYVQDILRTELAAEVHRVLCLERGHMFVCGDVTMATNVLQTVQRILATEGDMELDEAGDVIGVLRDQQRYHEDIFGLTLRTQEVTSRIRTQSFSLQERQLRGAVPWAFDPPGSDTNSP

Data set [1] has as its system T2, wild type eNOS peptide 1174-RIRTQSFSLQERHLRGAVPWA-1194.
T2 sequence: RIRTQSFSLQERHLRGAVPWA

For data set [2], the system named is T3, mutant eNOS peptide (1174-1194) with serine 1179 substituted by alanine.
T3 sequence: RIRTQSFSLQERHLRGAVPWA

Turning to “constitutively-active Akt (myrAkt), expressed in HUVEC from an adenovirus”, the “32P-phosphate incorporation into endogenous eNOS in HUVEC (immunoprecipitation, autoradiography)” value with endogenous eNOS of HUVEC was “adenovirus-mediated transduction of constitutively-active Akt (myrAkt) led to the incorporation of phosphate into eNOS in the absence of stimulation with simvastatin or VEGF”.
Take “Akt immunoprecipitated from HUVEC lysate with goat polyclonal anti-Akt1 antibody”: the “32P incorporation into eNOS peptide by immunoprecipitated Akt (in vitro kinase assay)” value in data set [1] is “Activation of Akt kinase activity was also observed when lysates prepared from simvastatin-treated cells were tested for their ability to phosphorylate a peptide containing the Akt phosphorylation site of eNOS (amino acids 1174 to 1194)”; in data set [2], “a peptide with alanine substituted for serine at position 1179 did not incorporate appreciable phosphate under any condition tested”. Besides, the “phosphorylation of histone H2B by immunoprecipitated Akt (autoradiography)” value in the data set on histone H2B is on record as “Akt polypeptide kinase activity was increased in lysates of HUVEC treated with 1.0 µM simvastatin or 100 ng/ml VEGF”.
